Experimental data as given in PMC8452523.

Columns and labels:
[1] = target: trimeric Spike K417N/E484K/N501Y (SARS-CoV-2) (UniProt P0DTC2); test: Luminex bead-based binding assay
[2] = target: trimeric Spike, full P.1 variant (SARS-CoV-2) (UniProt P0DTC2); test: Luminex bead-based binding assay

REGN10933 (antibody)
fold reduced binding affinity [1]: 60 fold
fold reduced binding affinity [2]: 195 fold
